Experimental data taken from US20180057601A1 (PIERRE FABRE MEDICAMENT, published 2018).

Key:
Peptide_029 = molecular target: T1, Peptide_029; assay: peptide microarray: immobilized 15-mer peptides, Cy5 anti-human IgG; signal as ratio to control antibody ch9G4
T1 construct: immobilized on the microarray
T1 peptide: VIERFWDFIDQLSIN
Description: (§1) Peptide micro array epitope characterization was performed by JPT Peptide Technologies GmbH, Berlin, Germany. In brief the analysis was performed as follows: 32-linear 15-meric peptide sequences representing an overlapping peptide scan (15/12) through the ADAM17 membrane proximal domain were synthesized (Table 5) and immobilized on microarray slides four additional peptides were included by JPT as internal process control spots. Moreover, human IgG and mouse IgG were co-immobilized on the microarray to serve as assay controls. Furthermore, rhADAM17 protein was co-immobilized as an additional control.
(§2) The assay was performed using a Multiwell incubation chamber. Microarrays were incubated with 100 μg/ml 1022C3 or control antibody ch9G4 diluted in blocking buffer (Pierce International, Superblock TBS T20, order No 37536) overnight at 4° C. Microarrays were then incubated with 1 μg/ml Cy5 labelled secondary antibody (anti-human IgG, JIR, 109-175-098) diluted in blocking buffer for 60 min at 30° C. Microarrays were dried. Before each step microarrays were washed with washing buffer (50 mM TBS-buffer, 0.1% Tween20 (v/v), pH 7.2).
(§3) Microarrays were scanned using a high resolution fluorescence scanner. Laser settings and applied resolution were identical for all performed measurements. The resulting images were analyzed and quantified using spot-recognition software GenePix (Molecular Devices). For each spot, the mean signal intensity was extracted (between 0 and 65535 arbitrary units). The ration of signal intensity between 1022C3 and the control antibody ch9G4 was compared between multiple experiments and peptides with a signal three fold higher 1022C3 than ch9G4 were identified (FIG. 3).

Peptide_023 = molecular target: T2, Peptide_023; assay: as above
T2 construct: immobilized on the microarray
T2 peptide: CTVGFCDMNGKCEKR
Description: as §1, §2, §3

Peptide_001 = molecular target: T3, Peptide_001; assay: as above
T3 construct: immobilized on the microarray
T3 peptide: DTVCLDLGKCKDGKC
Description: as §1, §2, §3

Peptide_022 = molecular target: T4, Peptide_022; assay: as above
T4 construct: immobilized on the microarray
T4 peptide: GKPCTVGFCDMNGKC
Description: as §1, §2, §3

Peptide_006 = molecular target: T5, Peptide_006; assay: as above
T5 construct: immobilized on the microarray
T5 peptide: IPFCEREQQLESCAC
Description: as §1, §2, §3

Peptide_016 = molecular target: T6, Peptide_016; assay: as above
T6 construct: immobilized on the microarray
T6 peptide: GRCVPYVDAEQKNLF
Description: as §1, §2, §3

Peptide_018 = molecular target: T7, Peptide_018; assay: as above
T7 construct: immobilized on the microarray
T7 peptide: VDAEQKNLFLRKGKP
Description: as §1, §2, §3

Peptide_030 = molecular target: T8, Peptide_030; assay: as above
T8 construct: immobilized on the microarray
T8 peptide: RFWDFIDQLSINTFG
Description: as §1, §2, §3

Peptide_026 = molecular target: T9, Peptide_026; assay: as above
T9 construct: immobilized on the microarray
T9 peptide: GKCEKRVQDVIERFW
Description: as §1, §2, §3

Peptide_021 = molecular target: T10, Peptide_021; assay: as above
T10 construct: immobilized on the microarray
T10 peptide: LRKGKPCTVGFCDMN
Description: as §1, §2, §3

Peptide_019 = molecular target: T11, Peptide_019; assay: as above
T11 construct: immobilized on the microarray
T11 peptide: EQKNLFLRKGKPCTV
Description: as §1, §2, §3

Peptide_008 = molecular target: T12, Peptide_008; assay: as above
T12 construct: immobilized on the microarray
T12 peptide: EQQLESCACNETDNS
Description: as §1, §2, §3

Peptide_025 = molecular target: T13, Peptide_025; assay: as above
T13 construct: immobilized on the microarray
T13 peptide: DMNGKCEKRVQDVIE
Description: as §1, §2, §3

Peptide_009 = molecular target: T14, Peptide_009; assay: as above
T14 construct: immobilized on the microarray
T14 peptide: LESCACNETDNSCKV
Description: as §1, §2, §3

Peptide_032 = molecular target: T15, Peptide_032; assay: as above
T15 construct: immobilized on the microarray
T15 peptide: IDQLSINTFGKFLAD
Description: as §1, §2, §3

Peptide_005 = molecular target: T16, Peptide_005; assay: as above
T16 construct: immobilized on the microarray
T16 peptide: GKCIPFCEREQQLES
Description: as §1, §2, §3

Peptide_007 = molecular target: T17, Peptide_007; assay: as above
T17 construct: immobilized on the microarray
T17 peptide: CEREQQLESCACNET
Description: as §1, §2, §3

Peptide_010 = molecular target: T18, Peptide_010; assay: as above
T18 construct: immobilized on the microarray
T18 peptide: CACNETDNSCKVCCR
Description: as §1, §2, §3

Peptide_004 = molecular target: T19, Peptide_004; assay: as above
T19 construct: immobilized on the microarray
T19 peptide: CKDGKCIPFCEREQQ
Description: as §1, §2, §3

Peptide_024 = molecular target: T20, Peptide_024; assay: as above
T20 construct: immobilized on the microarray
T20 peptide: GFCDMNGKCEKRVQD
Description: as §1, §2, §3

Peptide_028 = molecular target: T21, Peptide_028; assay: as above
T21 construct: immobilized on the microarray
T21 peptide: VQDVIERFWDFIDQL
Description: as §1, §2, §3

Peptide_027 = molecular target: T22, Peptide_027; assay: as above
T22 construct: immobilized on the microarray
T22 peptide: EKRVQDVIERFWDFI
Description: as §1, §2, §3

Peptide_031 = molecular target: T23, Peptide_031; assay: as above
T23 construct: immobilized on the microarray
T23 peptide: DFIDQLSINTFGKFL
Description: as §1, §2, §3

Peptide_014 = molecular target: T24, Peptide_014; assay: as above
T24 construct: immobilized on the microarray
T24 peptide: CCRDLSGRCVPYVDA
Description: as §1, §2, §3

Peptide_011 = molecular target: T25, Peptide_011; assay: as above
T25 construct: immobilized on the microarray
T25 peptide: NETDNSCKVCCRDLS
Description: as §1, §2, §3

Peptide_012 = molecular target: T26, Peptide_012; assay: as above
T26 construct: immobilized on the microarray
T26 peptide: DNSCKVCCRDLSGRC
Description: as §1, §2, §3

Peptide_015 = molecular target: T27, Peptide_015; assay: as above
T27 construct: immobilized on the microarray
T27 peptide: DLSGRCVPYVDAEQK
Description: as §1, §2, §3

[1] = molecular target: ADAM17 at the plasma membrane of A431 cells (human, UniProt P78536 215-824); assay: cell-based or functional assay
ADAM17 at the plasma membrane of A431 cells, sequence (P78536 215-824 limits assumed): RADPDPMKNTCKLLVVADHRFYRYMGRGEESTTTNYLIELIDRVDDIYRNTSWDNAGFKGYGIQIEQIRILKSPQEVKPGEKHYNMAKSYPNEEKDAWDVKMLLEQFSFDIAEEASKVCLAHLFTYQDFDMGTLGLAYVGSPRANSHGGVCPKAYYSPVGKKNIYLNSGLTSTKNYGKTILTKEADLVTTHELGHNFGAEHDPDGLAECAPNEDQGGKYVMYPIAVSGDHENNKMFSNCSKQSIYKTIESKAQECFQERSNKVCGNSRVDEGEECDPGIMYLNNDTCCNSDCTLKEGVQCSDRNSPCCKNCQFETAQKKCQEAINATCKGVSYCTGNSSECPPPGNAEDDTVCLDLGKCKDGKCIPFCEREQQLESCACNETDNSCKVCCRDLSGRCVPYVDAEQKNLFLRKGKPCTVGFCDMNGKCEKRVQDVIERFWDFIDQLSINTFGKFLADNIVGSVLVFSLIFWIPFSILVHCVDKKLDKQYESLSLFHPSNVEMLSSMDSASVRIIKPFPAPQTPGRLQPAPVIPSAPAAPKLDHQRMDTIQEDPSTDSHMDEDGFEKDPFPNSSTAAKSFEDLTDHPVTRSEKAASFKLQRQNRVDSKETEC

B1: hz1022C3 (antibody, V domains shown)
VH: QVQLQESGPGLVKPSETLSLTCTVSGFSLDTSGMGVSWIRQPAGKGLEWIGHIYWDDDKRYNPSLKSRVTMSKDTSSNQVSLKLSSVTAADTAVYYCARRSHFGNYYYAMDYWGQGTTVTVSS
VL: DIQMTQSPSSLSASVGDRVTITCRASQDISSYLNWYQQKPGKAPKLLIFYTSRLQSGVPSRFSGSGSGTDFTLTISSLQPEDFATYYCQQGKTLPLTFGGGTKVEIK
notes: also called mAb hz1022C3; anti-ADAM17 mAb (hz1022C3)
- binding result (Peptide_029): no binding (tested: 100 µg/ml)
- binding result (Peptide_023): no binding (tested: 100 µg/ml)
- binding result (Peptide_001): no binding (tested: 100 µg/ml)
- binding result (Peptide_022): no binding (tested: 100 µg/ml)
- binding result (Peptide_006): no binding (tested: 100 µg/ml)
- binding result (Peptide_016): no binding (tested: 100 µg/ml)
- binding result (Peptide_018): no binding (tested: 100 µg/ml)
- binding result (Peptide_030): no binding (tested: 100 µg/ml)
- binding result (Peptide_026): no binding (tested: 100 µg/ml)
- binding result (Peptide_021): no binding (tested: 100 µg/ml)
- binding result (Peptide_019): no binding (tested: 100 µg/ml)
- binding result (Peptide_008): no binding (tested: 100 µg/ml)
- binding result (Peptide_025): no binding (tested: 100 µg/ml)
- binding result (Peptide_009): no binding (tested: 100 µg/ml)
- binding result (Peptide_032): no binding (tested: 100 µg/ml)
- binding result (Peptide_005): no binding (tested: 100 µg/ml)
- binding result (Peptide_007): no binding (tested: 100 µg/ml)
- binding result (Peptide_010): no binding (tested: 100 µg/ml)
- binding result (Peptide_004): no binding (tested: 100 µg/ml)
- binding result (Peptide_024): no binding (tested: 100 µg/ml)
- binding result (Peptide_028): no binding (tested: 100 µg/ml)
- binding result (Peptide_027): no binding (tested: 100 µg/ml)
- binding result (Peptide_031): no binding (tested: 100 µg/ml)
- binding result (Peptide_014): no binding (tested: 100 µg/ml)
- binding result (Peptide_011): no binding (tested: 100 µg/ml)
- binding result (Peptide_012): no binding (tested: 100 µg/ml)
- binding result (Peptide_015): no binding (tested: 100 µg/ml)
- IC50 of inhibition of cellular shedding of (mutated pro-)TNFα-Nluc [1]: 0.16 nM
- IC50 of inhibition of cellular shedding of AREG-Nluc from A431 cells [1]: 0.16 nM
- IC50 of inhibition of cellular shedding of HB-EGF-Nluc from A431 cells [1]: 0.19 nM
- IC50 of inhibition of cellular shedding of TGFα-Nluc from A431 cells [1]: 0.12 nM
- IC50 of inhibition of cellular shedding, mean of the four substrates [1]: 0.16 nM
